According to patent EP4703384A1:

What was measured:
[1] = target: human GPRC5D protein (human) (UniProt Q9NZD1); assay: FACS on MM.1S cells; negative control
[2] = target: human GPRC5D protein (human) (UniProt Q9NZD1); assay: FACS on RPMI-8226 cells; negative control
[3] = target: human GPRC5D protein (human) (UniProt Q9NZD1); assay: FACS on NCI-H929 cells; negative control

human GPRC5D protein (human), sequence (Q9NZD1 whole entry): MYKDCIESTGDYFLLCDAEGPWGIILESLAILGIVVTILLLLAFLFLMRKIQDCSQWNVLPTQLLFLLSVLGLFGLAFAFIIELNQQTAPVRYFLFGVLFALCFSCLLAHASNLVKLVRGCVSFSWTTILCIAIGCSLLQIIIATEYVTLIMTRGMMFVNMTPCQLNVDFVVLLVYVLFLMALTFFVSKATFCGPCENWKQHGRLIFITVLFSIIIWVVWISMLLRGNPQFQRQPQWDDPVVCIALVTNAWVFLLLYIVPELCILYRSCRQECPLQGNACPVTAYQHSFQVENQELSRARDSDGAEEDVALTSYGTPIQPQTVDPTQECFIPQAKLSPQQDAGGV

Top(MFI) [1]: 6770 MFI | Top(MFI) [2]: 3860 MFI | Top(MFI) [3]: 4180 MFI
Substance: hIgG1 monoclonal antibody (Biointron, Cat. No. B117901)
